Patent publication US20240360233A1 (University of Texas, published 2024)

Columns and labels:
[1] = molecular target: T1, TSLPR on TSLPR-expressing REH cells (UniProt Q9HC73 23-371); assay: cell-based or functional assay
T1 sequence (looked up): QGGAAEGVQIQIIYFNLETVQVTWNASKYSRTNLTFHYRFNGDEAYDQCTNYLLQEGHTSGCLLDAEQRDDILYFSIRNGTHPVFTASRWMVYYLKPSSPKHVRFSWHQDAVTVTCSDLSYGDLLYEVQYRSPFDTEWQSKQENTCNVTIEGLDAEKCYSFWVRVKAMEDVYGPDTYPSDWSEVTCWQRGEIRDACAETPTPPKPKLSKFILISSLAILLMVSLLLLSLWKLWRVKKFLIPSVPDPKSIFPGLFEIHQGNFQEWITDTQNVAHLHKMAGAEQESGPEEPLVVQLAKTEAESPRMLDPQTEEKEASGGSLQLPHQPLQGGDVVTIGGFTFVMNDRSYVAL

[2] = molecular target: T2, his-tagged TSLPR (TSLPR-HIS) (UniProt Q9HC73 23-231, limits assumed); assay: BLI (ForteBio AHQ sensor), antibody captured, TSLPR-HIS in solution
T2 construct: Soluble protein used in the ForteBio assay; not shown: His tag
T2 sequence (looked up): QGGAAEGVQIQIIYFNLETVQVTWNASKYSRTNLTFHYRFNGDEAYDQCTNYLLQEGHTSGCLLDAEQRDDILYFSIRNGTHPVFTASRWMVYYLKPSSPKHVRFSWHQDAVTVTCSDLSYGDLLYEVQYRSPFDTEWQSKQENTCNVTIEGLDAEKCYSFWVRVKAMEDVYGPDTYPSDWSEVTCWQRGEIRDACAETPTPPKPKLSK
Method: (§1) TSLPR antibody clones whose VH and VL sequences are disclosed in Tables 9 and 10 were bound to the AHQ sensor and his-tagged TSLPR (TSLPR-HIS) was provided in solution. […] The anti-TSLPR antibodies were serially diluted with an HBS-EP solution (GE Healthcare), and 100 μL of the solution was added to the flow path at a flow rate of […].

human TSLPR protein = molecular target: T3, human TSLPR protein (human, UniProt Q9HC73 23-231, limits assumed); assay: SPR (BIAcore)
T3 sequence (looked up): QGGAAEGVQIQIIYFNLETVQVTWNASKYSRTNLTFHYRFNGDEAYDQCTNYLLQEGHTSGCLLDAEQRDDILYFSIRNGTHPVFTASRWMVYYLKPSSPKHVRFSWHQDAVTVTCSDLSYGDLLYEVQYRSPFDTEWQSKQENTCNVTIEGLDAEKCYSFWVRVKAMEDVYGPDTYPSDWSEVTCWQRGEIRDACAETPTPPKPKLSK

cynomolgus TSLPR = cynomolgus TSLPR (cynomolgus); assay: SPR (BIAcore)
[3] = molecular target: T2, his-tagged TSLPR (TSLPR-HIS); assay: BLI (ForteBio AHQ sensor), antibody captured, TSLPR-HIS and TSLP in solution; competitor TSLP
Method: as §1

EC50 (Promega ADCC reporter assay, RLU) [1] [nM] | Kd [2] [nM] | koff [2] [s⁻¹] | kon [2] [M⁻¹ s⁻¹] | Kd (human TSLPR protein) [nM] | Kd (cynomolgus TSLPR) [nM] | TSLPR-TSLP Response [3] [%] | Binder
0.03 | 4.45 | 0.000769 | 173000 | – | – | – | TSLPR antibody clone 1A9 (antibody, V domains shown, also called TSLPR-4; TSLPR-004) VH: QVQLQESGPGLVKPSETLSLTCAVSGYSISSGYYWGWIRQPPGKGLEWIGRIYHSGTTSYNPSLKRRVTISVDTSKNQFSLKLSSVTATDTAVYYCARNWGGNWFDPWGQGTLVTVSS VL: EIVLTQSPATLSLSPGERATLSCRASQSVSSYLAWYQQKPGQAPRLLIYDASNRATGIPARFSGSGSGTDFTLTISSLEPEDFAVYYCQQRSTWLTFGGGTKVDIKR
0.08 | 2.82 | 0.00079 | 280000 | ~2.87 | ~2.03 | – | TSLPR antibody clone 1B7 (antibody, V domains shown, also called TSLPR-6; TSLPR-006) VH: QVQLQESGPGLVKPSGTLSLTCAVSGGSISSSNWWSWVRQPPGKGLEWIGEIYHGGTTNNNPSLKSRVTISVDKSKSQFSLKLSSVTAADTAVYYCARHRYSNGLDYWGQGTLVTVSS VL: not shown
– | 7.63 | 0.0014 | 184000 | – | – | 82.6 | TSLPR antibody clone 2E6 (antibody, V domains shown, Captured on an anti-human IgG sensor) VH: EVQLLESGGNLVQPGGSLRLSCAASGFTFGSYVMTWGRQAPGKGLEWVSTISASGGSTYYADSVKGRFTISRDNSKNTLYLQMNSLRAEDTAVYYCAKDKWGKGFDIWGQGTMVTVSS VL: DIQLTQSPSFLSASVGDRVTITCRASQGISSYLAWYQQKPGKAPKLLIYAASTLQSGVPSRFSGSGSGTEFTLTISSLQPEDFATYYCQQLNSYPPTFGGGTKVEIKR
– | 1.28 | 0.00045 | 351000 | – | – | 120 | TSLPR antibody clone 2F5 (antibody, V domains shown, Captured on an anti-human IgG sensor) VH: EVQLVESGGGLVQSGGSLRFSCAASGFTFSSHPMNWVRQVPGKGLEWVSSISGSGGSTYYADFVKGRFTISRDNSKNTLYLQMNSLRAEDTAVYYCAKGHNSGWKYWGQGTLVTVSS VL: DIQLTQSPSFLSASVGDRVTITCRASQGISSYLAWYQQKPGKAPKLLIYAASTLQSGVPSRFSGSGSGTEFTLTISSLQPEDFATYYCQQLNSYPPTFGQGTKVDIKR
